# Earlier results as cited in patent US20040162315A1, “Use of compounds for treating conditions resulting from injury to the corneal nerve after LASIK and other ocular surgeries or trauma” (priority 2002, published 2004).
# Test system: axotomized ocular nerves
# Conditions: single intravitreal injection of 5 μg, administered during the first five days after injury
molecule,measurement,value
"BDNF: neurotrophin family peptide, TrkB receptor-selective ligand (protein, UniProt P23560 19-247, looked up) Neurotrophic factor BDNF …: APMKEANIRGQGGLAYPGVRTHGTLESVNGPKAGSRGLTSLADTFEHVIEELLDEDQKVRPNEENNKDADLYTSRVMLSSQVPLEPPLLFLLEEYKNYLDAANMSMRVRRHSDPARRGELSVCDSISEWVTAADKKTAVDMSGGTVTVLEKVPVSKGQLKQYFYETKCNPMGYTKEGCRGIDKRHWNSQCRTTQSYVRALTMDSKKRIGWRFIRIDTSCVCTLTIKRGR",death of the axotomized ocular nerves,prevented the death of the axotomized ocular nerves
